US20120058906A1

Tests used:
[1] = molecular target: rHuman P-Cadherin/Fc Chimera, CF (R&D Systems Cat#861-PC) (human) (UniProt P22223); assay: MSD ECL multi-spot assay, antigen spotted on plate, Fab 1.57 uM; blank spot 797
[2] = molecular target: rHuman EGF R/Fc Chimera, CF (R&D Systems Cat#344-ER) (human) (UniProt P00533); assay: ECL (MSD Multi-Spot) binding, antigen spotted on plate; Fab 25 nM
[3] = molecular target: rHuman ErbB2/Fc Chimera, CF (R&D Systems Cat#1129-ER) (human) (UniProt P04626); assay: as above
[4] = molecular target: rHuman HGF R/c-MET/Fc Chimera, CF (R&D Systems Cat#358-MT/CF) (human) (UniProt P08581); assay: as above
[5] = molecular target: rHuman EGF R/Fc Chimera, CF (R&D Systems Cat#344-ER) (human) (UniProt P00533); assay: ECL (MSD Multi-Spot) binding, antigen spotted on plate; Fab 500 nM
[6] = molecular target: rHuman ErbB2/Fc Chimera, CF (R&D Systems Cat#1129-ER) (human) (UniProt P04626); assay: as above
[7] = molecular target: rHuman HGF R/c-MET/Fc Chimera, CF (R&D Systems Cat#358-MT/CF) (human) (UniProt P08581); assay: as above
[8] = molecular target: rHuman EGF R/Fc Chimera, CF (R&D Systems Cat#344-ER) (human) (UniProt P00533); assay: ECL (MSD Multi-Spot) binding, antigen spotted on plate; Fab 1.25 nM
[9] = molecular target: rHuman ErbB2/Fc Chimera, CF (R&D Systems Cat#1129-ER) (human) (UniProt P04626); assay: as above
[10] = molecular target: rHuman HGF R/c-MET/Fc Chimera, CF (R&D Systems Cat#358-MT/CF) (human) (UniProt P08581); assay: as above
[11] = molecular target: rHuman EGF R/Fc Chimera, CF (R&D Systems Cat#344-ER) (human) (UniProt P00533); assay: ECL (MSD Multi-Spot) binding, antigen spotted on plate; Fab 0.0625 nM
[12] = molecular target: rHuman ErbB2/Fc Chimera, CF (R&D Systems Cat#1129-ER) (human) (UniProt P04626); assay: as above
[13] = molecular target: rHuman HGF R/c-MET/Fc Chimera, CF (R&D Systems Cat#358-MT/CF) (human) (UniProt P08581); assay: as above

| ECL signal [1] | ECL signal [2] | ECL signal [3] | ECL signal [4] | ECL signal [5] | ECL signal [6] | ECL signal [7] | ECL signal [8] | ECL signal [9] | ECL signal [10] | ECL signal [11] | ECL signal [12] | ECL signal [13] | Binder |
| --- | --- | --- | --- | --- | --- | --- | --- | --- | --- | --- | --- | --- | --- |
| 2030 | – | – | – | – | – | – | – | – | – | – | – | – | Fab VH1-46_IGHD3-10*01_IGHJ4*01 & O1_IGKJ1*01 (Fab, V domains shown) VH: QVQLVQSGAEVKKPGASVKVSCKASGYTFTSYYMHWVRQAPGQGLEWMGIINPSGGSTSYAQKFQGRVTMTRDTSTSTVYMELSSLRSEDTAVYYCAREYYYGSGSYYNDYFDYWGQGTLVTVSS VL: DIVMTQTPLSLPVTPGEPASISCRSSQSLLDSDDGNTYLDWYLQKPGQSPQLLIYTLSYRASGVPDRFSGSGSGTDFTLKISRVEAEDVGVYYCMQRIEFPSWTFGQGTKVEIK |
| – | 821 | 927 | 805 | 1110 | 957 | 1300 | 729 | 695 | 774 | 736 | 692 | 643 | Fab VH5-51_IGHD5-18*01>3_IGHJ4*01_G100K_G104T & V3-4_IGLJ1*01 (Fab, V domains shown) VH: EVQLVQSGAEVKKPGESLKISCKGSGYSFTSYWIGWVRQMPGKGLEWMGIIYPGDSDTRYSPSFQGQVTISADKSISTAYLQWSSLKASDTAMYYCARRKYSYTYDYFDYWGQGTLVTVSS VL: QTVVTQEPSFSVSPGGTVTLTCGLSSGSVSTSYYPSWYQQTPGQAPRTLIYSTNTRSSGVPDRFSGSILGNKAALTITGAQADDESDYYCVLYMGSGISYVFGTGTKVTVL |
